Experimental data from paper PMC4370744, “Expression and purification of functional human glycogen synthase-1:glycogenin-1 complex in insect cells” (Protein Expression and Purification, 2015).

Target: T1, human glycogenin-1 (GN1), GST removed by PreScission protease (human, UniProt P46976 1-350, glycosylated (degree of glycosylation modest))
T1 construct: human glycogenin-1 (GN1), NM 004130; released from GST at the PreScission site; the introduction speaks of a complete full-length complex; Same construct as m2 after cleavage; source: Sf9, co-expressed with GYS1; purified with GYS1 (glutathione Sepharose, eluted by GST-tagged PreScission protease, Superdex 200)
T1 sequence (looked up): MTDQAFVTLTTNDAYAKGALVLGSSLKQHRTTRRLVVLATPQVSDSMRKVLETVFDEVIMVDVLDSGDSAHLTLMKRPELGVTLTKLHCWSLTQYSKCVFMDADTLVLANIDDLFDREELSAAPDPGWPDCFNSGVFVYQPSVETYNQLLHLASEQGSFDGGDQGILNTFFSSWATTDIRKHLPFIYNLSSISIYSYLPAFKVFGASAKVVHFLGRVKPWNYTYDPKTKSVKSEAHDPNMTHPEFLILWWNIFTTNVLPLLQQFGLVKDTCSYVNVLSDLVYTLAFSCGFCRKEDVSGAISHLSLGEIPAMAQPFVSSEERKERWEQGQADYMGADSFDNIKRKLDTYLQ
Assay: SEC; analytical: purified GYS1:GN1 (5 ug) on Superdex 200 3.2/300, 20 mM TES pH 7.4, 150 mM KCl, 1 mM DTT; apparent MW against protein standards
Details: both partners purified

B1: human muscle glycogen synthase (GYS1) (enzyme, UniProt P13807 1-737, looked up)
chain: MPLNRTLSMSSLPGLEDWEDEFDLENAVLFEVAWEVANKVGGIYTVLQTKAKVTGDEWGDNYFLVGPYTEQGVRTQVELLEAPTPALKRTLDSMNSKGCKVYFGRWLIEGGPLVVLLDVGASAWALERWKGELWDTCNIGVPWYDREANDAVLFGFLTTWFLGEFLAQSEEKPHVVAHFHEWLAGVGLCLCRARRLPVATIFTTHATLLGRYLCAGAVDFYNNLENFNVDKEAGERQIYHRYCMERAAAHCAHVFTTVSQITAIEAQHLLKRKPDIVTPNGLNVKKFSAMHEFQNLHAQSKARIQEFVRGHFYGHLDFNLDKTLYFFIAGRYEFSNKGADVFLEALARLNYLLRVNGSEQTVVAFFIMPARTNNFNVETLKGQAVRKQLWDTANTVKEKFGRKLYESLLVGSLPDMNKMLDKEDFTMMKRAIFATQRQSFPPVCTHNMLDDSSDPILTTIRRIGLFNSSADRVKVIFHPEFLSSTSPLLPVDYEEFVRGCHLGVFPSYYEPWGYTPAECTVMGIPSISTNLSGFGCFMEEHIADPSAYGIYILDRRFRSLDDSCSQLTSFLYSFCQQSRRQRIIQRNRTERLSDLLDWKYLGRYYMSARHMALSKAFPEHFTYEPNEADAAQGYRYPRPASVPPSPSLSRHSSPHQSEDEEDPRNGPLEEDGERYDEDEEAAKDRRNIRAPEWPRRASCTSSTSGSKRNSVDTATSSSLSTPSEPLSPTSSLGEERN
modifications: heavily phosphorylated: phospho-T54, T372, S412, S486, S641, S645, S647, S652, S653, S657, S710, S727 (LC-MS), S8/S11 (immunoblot); about 6 mol phosphate per mol total protein (GYS1 + GN1)
notes: human muscle glycogen synthase GYS1, NM 002103, UniProt P13807; no tag; the introduction speaks of a complete full-length complex; tryptic peptides up to residue 737 were found; the methods say only 'genes coding for human GYS1'; also called glycogen synthase-1; GYSb (native, phosphorylated form); source: Sf9, co-expressed with GST-tagged GN1 from a bicistronic pFastBac-Dual baculovirus; in …
B1 was tested, and the “stoichiometry N” value was ~1 GYS1 per GN1 (printed as 4:4).
